Assay results as given in patent US20180086836A1 (GLENMARK PHARMACEUTICALS S A, published 2018).
Substitutions are numbered along the chain they refer to. In names and notes the source's numbering stands. Each block holds one binder with its values, some of them ahead of it.

Assays:
[1] = biological target: T1, recombinant human N-terminal CCR6 Fc (human); experiment: SPR, human CCR6 N-terminal peptide Fc on the chip, FAB as analyte
T1 construct: also called human CCR6-Fc; hsCCR6-Nter-Fc

[2] = biological target: T2, recombinant cynomologus N-terminal CCR6 peptide Fc (cynomolgus monkey; human); experiment: SPR, cynomolgus CCR6 N-terminal Fc fusion coupled on the sensor chip, FAB as analyte
T2 construct: It differs from the human construct only in the CCR6 N-terminus; also called Cyno CCR6-Fc; cynoCCR6-Nter-Fc

[3] = biological target: T1, recombinant human N-terminal CCR6 Fc; experiment: SPR, human CCR6 N-terminal Fc fusion coupled on the sensor chip, FAB as analyte
[4] = biological target: T1, recombinant human N-terminal CCR6 Fc; experiment: SPR, FAB as analyte, fusion protein coupled onto the sensor chip
[5] = biological target: T2, recombinant cynomologus N-terminal CCR6 …; experiment: as above

B1: VH5/VL1 L1-N28T FAB (Fab, V domains shown)
VH: EVQLVESGGGLVQPGGSLRLSCAASGFSFSDYYMYWVRQAPGKGLEWVSYITNGGITYYPDSVKGRFTISRDNSKNTLYLQMNSLRAEDTAVYYCTSPLRGAWFAYWGQGTLVTVSS
VL: DVVMTQSPLSLPVTLGQPASISCRSSQSIVHSTGNTYLEWYQQRPGQSPRLLIYKVSNRFSGVPDRFSGSGSGTDFTLKISRVEAEDVGVYYCFQGSHVPLTFGQGTKLEIKR
notes: CDR-L1 deamidation-site variant; copies: 1 + 1
binding result [1]: binds

B2: VH5/VL1 FAB (parental) (Fab, V domains shown)
VH: B1 VH
VL: DVVMTQSPLSLPVTLGQPASISCRSSQSIVHSNGNTYLEWYQQRPGQSPRLLIYKVSNRFSGVPDRFSGSGSGTDFTLKISRVEAEDVGVYYCFQGSHVPLTFGQGTKLEIK
notes: Human FAB fragment; also called parental FAB; parental VH5/VL1 FAB
Kd [2]: 33.6 nM

B3: VH5/VL1-B3C9-G29A FAB (Fab, name in Kabat numbering, V domains shown)
VH: B1 VH with N53T, I56R
VL: B2 VL with G34A, S97T, H98Y, V99Y
Kd [2]: 1.23 nM | Kd [3]: 0.544 nM | Kd [4]: ~0.5 nM | fold improvement in KD value over the first pair of FAB constructs [4]: 2 fold | fold improvement in affinity compared to the parental VH5/VL1 FAB [4]: ~40 fold | Kd [5]: ~1 nM | fold improvement in affinity compared to the parental VH5/VL1 FAB [5]: ~30 fold

B5: VH5/VL1-C9-G29A FAB (Fab, V domains shown)
VH: B1 VH
VL: B2 VL with G34A, S97T, H98Y, V99Y
Kd [2]: 2.79 nM | Kd [3]: 1.28 nM | fold improvement in KD value compared to the parental FAB [4]: ~20 fold

B7: VH5/VL1-G8-G29A FAB (Fab, V domains shown)
VH: B1 VH
VL: B2 VL with G34A, S97T, H98Y, V99L
Kd [2]: 2.19 nM | Kd [3]: 1 nM | fold improvement in KD value compared to the parental FAB [4]: ~20 fold

B8: VH5/VL1 L1-N28S FAB (Fab, V domains shown)
VH: B1 VH
VL: B1 VL with T33S
notes: as for B1
binding result [1]: binds

More lines, now with the values ahead:

binding result [1]: binds
B4: VH5/VL1 L1-G29A FAB (Fab, V domains shown)
VH: B1 VH
VL: B2 VL with G34A
notes: VH5/VL1 FAB fragment with G29A in CDR-L1

Kd [2]: 1.17 nM | Kd [3]: 0.526 nM | Kd [4]: ~0.5 nM | fold improvement in KD value over the first pair of FAB constructs [4]: 2 fold | fold improvement in affinity compared to the parental VH5/VL1 FAB [4]: ~40 fold | Kd [5]: ~1 nM | fold improvement in affinity compared to the parental VH5/VL1 FAB [5]: ~30 fold
B6: VH5/VL1-B3G8-G29A FAB (Fab, name in Kabat numbering, V domains shown)
VH: B1 VH with N53T, I56R
VL: B2 VL with G34A, S97T, H98Y, V99L
